{
  "source": "paper PMC4188261",
  "molecular_target": "Burkholderia mallei BmaI1 acyl-homoserine lactone synthase (Burkholderia mallei ATCC23344)",
  "assay": "steady-state enzyme kinetics",
  "data": [
    {"substance": "octanoyl-acyl carrier protein (E. coli ACP) (from UniProt P0A6A8 1-78) (natural protein)", "values": [
      {"measurement": "Kd", "result": 125, "unit": "nM"}
    ]}
  ]
}
